According to patent US20230093399A1, “METHODS FOR GENERATING PLURIPOTENT STEM CELL-DERIVED BROWN FAT CELLS” (AgeX Therapeutics, Inc., priority 2013, published 2023):

System: cell line E15 and the line W10
Test: Cell lines E15 and W10 in micromass versus HyStem-C culture with BMP4, gene expression
Assay type: cell-based, human
Conditions: micromass conditions supplemented with 10 ng/mL BMP4
Experimental: In addition, the incubation of hEP cell lines in HyStem-C (BioTime, Inc. Alameda, Calif.) allowed the accumulation of a large amount of data on the biological influence of HyStem-C (BioTime, Inc. Alameda, Calif.) on diverse cell types. […] This physiological effect on myofibroblastic differentiation seen in many lines cultured in HyStem-C (BioTime, Inc. Alameda, Calif.) beads (i.e., the strong reduction in MYH11 expression) has therapeutic implications in vivo, such as in inhibiting fibrosis or adhesions. It also is of benefit in surgical settings where cells could be transplanted to regenerate tissue function while inhibiting adhesions and related fibrotic process at the surgical site.
The present invention utilizes micromass differentiations to generate high-density cultures, thereby predisposing hEP cells to differentiation in the presence of exogenous factors. Differentiation by micromass culture was performed according to the manufacturer's (BioTime) instructions (Chondrogenesis Differentiation Kit ES-K42). Briefly, cells were cultured in the undifferentiated state, trypsinized (0.25% w/v trypsin/EDTA (Invitrogen)), diluted 1:3 with PBS (Ca and Mg free), and resuspended at a cell density of 2.0×10^7 cells/ml in their respective growth media. […]

B1: BMP4: Bone Morphogenetic Protein 4, TGF-beta superfamily member (protein, UniProt P12644 293-408, looked up)
Bone morphogenetic protein 4: SPKHHSQRARKKNKNCRRHSLYVDFSDVGWNDWIVAPPGYQAFYCHGDCPFPLADHLNSTNHAIVQTLVNSVNSSIPKACCVPTELSAISMLYLDEYDKVVLKNYQEMVVEGCGCR
MYH11 expression: strongly induced
